Measured values from the nanobody polyreactivity screen of Harvey et al. (2022).

Assay: yeast display, Sf9 membrane polyspecificity reagent, FACS + sequencing; frameworks hold sequencing errors
Summary of the method: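 Galactose induction of a Saccharomyces cerevisiae BJ5465 synthetic nanobody display library ran 36–48 hours. The cells were then stained for 1 hour at 4 °C with 10% biotinylated, detergent-solubilized Sf9 membrane reagent, pulled down on streptavidin microbeads and FACS-sorted into low and high (top ~1%) gates on expression and reagent-binding fluorescence. Labels for polyreactivity follow the gate of origin.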

Row | Sequence | polyreactivity (PSR sort gate)
1 | QDQLVESGGGLVQAGGSLRLSCAASGSIFWSNAMGWYRQAPGKERELVASISSSGSTYYADSVKGRFTISRDNAKNTVYLQMNSLKPEDTGVYYCAAGSAYYSQRYFAYGYDSWGQGTQVTVSS | low polyreactivity
2 | QDQLVESGGGLVQAGGSLRLSCAASGSILIHNAMGWSRQAPGKERELVAAITSGGSTNYADSVKGRFTISRDNAKNTVYLQMNSLKPEDTAVYYCATAVGRVLVGYDYWGQGTQVTLSS | low polyreactivity
3 | QDQLVESGGGLVQAGGSLRLSCAASGSILLLNMGWYRQAPGKEMELVASIRWSGGITYYADSVKGRFTISRDNAKNTVYLQMNSLKPEDTAVYYCAARTYRYFGRYDYWGQGTQVTVSS | high polyreactivity
4 | QDQLVESGGGLVQAGGSLRLSCAASGSILVRNARGWYRQAPGKERELVASIDSGTSTNYADSVKGRFTISRDNAKTTVYLQLNSLKPEDTAVYYCAADWYYLWGRYYFWGQGTQVTVSS | high polyreactivity
5 | QDQLVESGGGLVQAGGSLRLSCAASGSISWVYSMGWYRQAPGKEREFVAAISESGDTYYADSVKGRFTISRDNAKNTVYLQMNSLKPEDTAVYYCAATSPDGVTYDYWGHGTQVTVSS | low polyreactivity
6 | QDQLVESGGGLVQAGGSLRLSCAASGSTFFGNAMGWSRQAPGKERELVAAISRGGGSTYYADSVKGRLTISRDNAKNTVYLQMNCLKPEDTAVYYCNADDPWTGTAVSTPNDSWGQGTQVTVSS | low polyreactivity
7 | QDQLVESGGGLVQAGGSLRLSCAASGSTFKYYAMGWYRQAPGKERELVAAISWTGGSTYYADSVKGRFTISRDNAKNTVYLQMNSLKPEDTAVYYCNAMGHVQGYDYWGQVTQVTVSS | high polyreactivity
8 | QDQLVESGGGLVQAGGSLRLSCAASGSTFPKYAMGWYRQAPGKERELVASISVTTGSTYYADSVKGRFTISRDNAKNTVYLQMNSLKPEDTAVYYCPKRTYSRKFRGAYNYWGQGTQVTVSS | high polyreactivity
9 | QDQLVESGGGLVQAGGSLRLSCAASGSTFPNNAMGWYREAPGKERELVATITTGGSTYYADSVKGRFTISRDNAKNTVYLQMNSLKPEDTAVYYCAADHLSYRRRYEYWGQGTQVTVSS | low polyreactivity
10 | QDQLVESGGGLVQAGGSLRLSCAASGSTFVPNAMGWYRQAPGKERELVAVISDSGVTTYYADSVKGRFTISRDNAKNTVYLQMNSLKPEDTAVYYCAARQDTWDAYLSTGEFDYWGQGTQVTVSS | high polyreactivity
11 | QDQLVESGGGLVQAGGSLRLSCAASGSTLNGNAMGWYRQAPGKERELVAAITTSGGSTYYADSVKGRFTISRDNAKNTVYLQMNSLKPEDTAVYYCNKLIGRRYGWANGYDYWGQGTQVTVSS | low polyreactivity
12 | QDQLVESGGGLVQAGGSLRLSCAASGSTVYFNAMGWYRPAPGKERELVASITSGGSTNYADSVKGRFTISRDNAKNTVYLQMNCLKPEDTAVYYCAAGLYLQGPLDYWGQGTQVTVSS | low polyreactivity
13 | QDQLVESGGGLVQAGGSLRLSCAASGTIFFGYSMGSYRQAPGKERDLVASISSADTTYYADSVKGRFTISRDNAKNTVYLQMNSLKPEDTAVYYCAAREGQLWEDGDYWGQGTQVTVSS | low polyreactivity
14 | QDQLVESGGGLVQAGGSLRLSCAASVSTFILNAMGWYRQAPGKERELVATISSSDTSTYYADSVKGRFTISRDNAKNTVYLQMNSLKPEDTAVYYCNADYYTTSYLQRVYHYGVEYDYWGQGTQVTVSS | low polyreactivity
15 | QDQLVESGGGLVQAGGSLRLSCAAYGSILGGNAMGWYRPAPGKERELVAAITFSGGGTYYADSVKGRFTISRDNAKNTVYLQMNSMKPEDTAVYYCAADKDGYTYEFDYWGQGTQVTVSS | low polyreactivity
16 | QDQLVESGGGLVQAGGSLRLSCAPSGFIFSNYAMGWYRHGPGKERELVAAISFTGSNTYYADSVKGRFTISRDYAKNTVYLKMNSLKPEDTAVYFCNAPLEWGVYAAQNWDEGYWGQGSQVTVSS | low polyreactivity

Row | Sequence | polyreactivity (PSR sort gate)
17 | QDQLVESGGGLVQAGGSLRLSCASSGFTFSKNAMGWYRQAPGKERELVAAISRGGGRTYYADSVKGRFTISRDNAKNTVYLQMNSLKPEDTAVYYCNVEKVGPGYDYWGQGTQVTVSS | high polyreactivity
18 | QDQLVESGGGLVQAGGSLRLSCASSGLIFYTSSMGWYSQAPGKESGLVAAITRSDSSTYYADSVKGRFTISRDNATNTVYLQMTSLKPEDPAVYYFATPSVFLFSEYDYWGQGTKVTVSS | low polyreactivity
19 | QDQLVESGGGLVQAGGSLRLSCASSGYIFYYNAMGWYRQAPGKEWELVAAITGDSGTYYADSVKGRFTISRDNAKNTFYFQMNCLKPEDTAVYYCNAYTFYQYYRWYVYWGQVTQVTVSS | low polyreactivity
20 | QDQLVESGGGLVQAGGSLRLSCDASGSIFRYYTMGWYRQAHGQERELVARISYSGGRTYYAVSVKGRFTISRDNAKNTVYLQMNSLKPEDTAVYYCNTVTRWVGKLEYWGHGTQVTVSS | high polyreactivity
21 | QDQLVESGGGLVQAGGSLRLTCAASGFNYRRNAMGWYRQAPGKERELVAAITASGGRTYYADSVKGRFTISRDNAKNTVYLQMNSLKPEDTAVDYCARDTAGFTRFSSKYDYWGQGTQVTLSS | high polyreactivity
22 | QDQLVESGGGLVQAGGSLRLTCAASGSTFGVYTMGWYRQAPGKERELVAAITKSGGSTYYADSVKGRFTISRDNAKNTVYLQMNSLKPEETAVYYCATDADRPPRTPDISYVSNFDYWGQGTQVTVSS | low polyreactivity
23 | QDQLVESGGGLVQAGGSLSLSCAASGSTFPYYAMGWSRPAPGKERELVAAISGSGGTTYYADSVKGRFTISRDNAKNTVYLQMNSLKPEDTAVYYCAVDIGVGYGYYYWGQGTQVTVSS | low polyreactivity
24 | QDQLVESGGGLVQAGGSLSLSCAASGSTFQPYTMGWYRQAPGKERELVAAITGRGGSTYYADSVKGRFTISRDNAKNTVYLQMNSLKPEDTAVYYCAAGAYRRNKSDYYYWGQGTQVTVSS | low polyreactivity
25 | QDQLVESGGGLVQAGGSLSLSCAAYGRIFSYNAMGWYRQAPGKERELVAAISYSGGRTYYADSVKGRFTISRDTAKNTVYLQMNSLKPEDTAVYYCAAEAHLAGYYRYYGGYGYDYWGQGTQVTVSS | high polyreactivity
26 | QDQLVESGGGLVQAGGSLSLSCADSGLTFGANTMGWYRQAPGKERELVATITQSVGRTYYADSVKGRFTISRDNAKNTVYLQMNSLKPEDTADYYCNAELYTVRVYTHPVYVRHDYWGQGTQVTVSS | high polyreactivity
27 | QDQLVESGGGLVQEGGSLRLSCAASVRIFGPYAMGWYRQAPGKERELLAAITRGGSTSYADSVKGRFTISRDNAKNTVYLQMNSLKPEDTAVYYCAADTLRWWDGFDYWGQGTQVTVST | low polyreactivity
28 | QDQLVESGGVLVQAGGSLRLSCAASGNIFAVYAMGWYRQAPGKERELVAAITTGTNTYADSVKGRFTISRDNAKNTVYLQMNSLKTEDTAVYYCAARSYRPLDYWGQGTQVTVSS | low polyreactivity
29 | QDQLVESRGGLVQAGCSLRLSCAASGFIFLHYTMGSYRQAPRKERELVAGITYGHGSTSYADSVKGRFTISRDNAKNTVYLQMNRLKPEDTAVYYCATRYWYRTSYQLYDYWGQGTQVTVSS | low polyreactivity
30 | QDQLVESRGGLVQAGGSLRLSCAASGRTFISNAMGWYRQAPGKERELVAADISWSGGSTYYADSVKGRFTISRDNAKNTVYLQMNIMKPEDTAVYYCNTVIRPYLAYTWSEIFDYWGQGTQVNVSS | low polyreactivity
31 | QDQLVESRGVLVQAGGSLRLTCAASGRTFYLNAMGWNRQATGKEREFVAAITWSSGSTYYADSVKGRFTISRDNAMNTVYLQMNSLKPEDTAVYYCAAAGRWSAYMYSWGQGTQVTVSS | high polyreactivity
